Residue numbers refer to the chain shown, from its start. Numbers in names are those of the source.

To fix the notation:
B1: DDR1 residue 415 to cysteine (in the C287S background) (receptor, human, UniProt Q08345 19-913, looked up)
chain: DADMKGHFDPAKCRYALGMQDRTIPDSDISASSSWSDSTAARHSRLESSDGDGAWCPAGSVFPKEEEYLQVDLQRLHLVALVGTQGRHAGGLGKEFSRSYRLRYSRDGRRWMGWKDRWGQEVISGNEDPEGVVLKDLGPPMVARLVRFYPRADRVMSVCLRVELYGCLWRDGLLSYTAPVGQTMYLSEAVYLNDSTYDGHTVGGLQYGGLGQLADGVVGLDDFRKSQELRVWPGYDYVGWSNHSFSSGYVEMEFEFDRLRAFQAMQVHSNNMHTLGARLPGGVECRFRRGPAMAWEGEPMRHNLGGNLGDPRARAVSVPLGGRVARFLQCRFLFAGPWLLFSEISFISDVVNNSSPALGGTFPPAPWWPPGPPPTNFSSLELEPRGQQPVAKAEGSCTAILIGCLVAIILLLLLIIALMLWRLHWRRLLSKAERRVLEEELTVHLSVPGDTILINNRPGPREPPPYQEPRPRGNPPHSAPCVPNGSALLLSNPAYRLLLATYARPPRGPGPPTPAWAKPTNTQAYSGDYMEPEKPGAPLLPPPPQNSVPHYAEADIVTLQGVTGGNTYAVPALPPGAVGDGPPRVDFPRSRLRFKEKLGEGQFGEVHLCEVDSPQDLVSLDFPLNVRKGHPLLVAVKILRPDATKNARNDFLKEVKIMSRLKDPNIIRLLGVCVQDDPLCMITDYMENGDLNQFLSAHQLEDKAAEGAPGDGQAAQGPTISYPMLLHVAAQIASGMRYLATLNFVHRDLATRNCLVGENFTIKIADFGMSRNLYAGDYYRVQGRAVLPIRWMAWECILMGKFTTASDVWAFGVTLWEVLMLCRAQPFGQLTDEQVIENAGEFFRDQGRQVYLSRPPACPQGLYELMLRCWSRESEQRPPFSQLHRFLAEDALNTV
notes: discoidin domain receptor 1, isoform DDR1b, human; full-length cDNA in pRK5; The text gives only the range V408C to A417C (10 single mutants); also called one of the 10 mutants V408C to A417C; source: HEK293, transiently transfected, in lysate
B2: DDR1 E412C (in the C287S background) (receptor, human, UniProt Q08345 19-913, looked up)
chain: B1 chain with E394C, C397P
notes: discoidin domain receptor 1, isoform DDR1b, human; full-length cDNA in pRK5; source: HEK293, transiently transfected, in lysate
B3: DDR1 residue 420 to cysteine (in the C287S background) (receptor, human, UniProt Q08345 19-913, looked up)
chain: B1 chain with C397P, I402C
notes: discoidin domain receptor 1, isoform DDR1b, human; full-length cDNA in pRK5; also called TM cysteine mutant, residue 420; source: HEK293, transiently transfected, in lysate
B4: DDR1 residue 411 to cysteine (in the C287S background) (receptor, human, UniProt Q08345 19-913, looked up)
chain: B1 chain with A393C, C397P
notes: as for B1
B5: DDR1 A417C (in the C287S background) (receptor, human, UniProt Q08345 19-913, looked up)
chain: B1 chain with C397P, A399C
notes: as for B2
B6: DDR1 residue 414 to cysteine (in the C287S background) (receptor, human, UniProt Q08345 19-913, looked up)
chain: B1 chain with S396C, C397P
notes: as for B1
B7: DDR1 residue 418 to cysteine (in the C287S background) (receptor, human, UniProt Q08345 19-913, looked up)
chain: B1 chain with C397P, I400C
notes: as for B2
B8: DDR1 residue 409 to cysteine (in the C287S background) (receptor, human, UniProt Q08345 19-913, looked up)
chain: B1 chain with A391C, C397P
notes: as for B1
B9: DDR1 G421C (in the C287S background) (receptor, human, UniProt Q08345 19-913, looked up)
chain: B1 chain with C397P, G403C
notes: as for B2
B10: DDR1 residue 413 to cysteine (in the C287S background) (receptor, human, UniProt Q08345 19-913, looked up)
chain: B1 chain with G395C, C397P
notes: as for B1
B11: DDR1 residue 410 to cysteine (in the C287S background) (receptor, human, UniProt Q08345 19-913, looked up)
chain: B1 chain with K392C, C397P
notes: as for B1
B12: DDR1 residue 419 to cysteine (in the C287S background) (receptor, human, UniProt Q08345 19-913, looked up)
chain: B1 chain with C397P, L401C
notes: discoidin domain receptor 1, isoform DDR1b, human; full-length cDNA in pRK5; also called TM cysteine mutant, residue 419; source: HEK293, transiently transfected, in lysate
B13: DDR1 V408C (in the C287S background) (receptor, human, UniProt Q08345 19-913, looked up)
chain: B1 chain with V390C, C397P
notes: as for B2

This series concerns the molecule itself. The series can be described thus: cross-linking; disulfide cross-linking of introduced cysteines in transiently transfected HEK293 cells, untreated or with 10 ug/ml collagen I for 90 min at 37 °C; lysis in 1% Nonidet P-40 buffer with NEM; nonreducing SDS-PAGE on 5% gels, Western blot with anti-DDR1; efficiency as percent dimeric of total DDR1.
With B1, the “dimerization efficiency (percent dimeric of total DDR1)” value is more than 70%.

For B2, the “dimerization efficiency (percent dimeric of total DDR1)” value is more than 70%.

In the case of B3, the “stoichiometry N” value is approximately 4.

Turning to B4, the “dimerization efficiency (percent dimeric of total DDR1)” value is more than 70%.

For B5, the “stoichiometry N” value is approximately 4.

In the case of B6, the “dimerization efficiency (percent dimeric of total DDR1)” value was more than 70%.

Turning to B7, the “stoichiometry N” value was approximately 4.

With B8, the “dimerization efficiency (percent dimeric of total DDR1)” value was more than 70%.

In the case of B9, the “stoichiometry N” value is approximately 4.

Take B10: the “dimerization efficiency (percent dimeric of total DDR1)” value was more than 70%.

Consider B11, for which the “dimerization efficiency (percent dimeric of total DDR1)” value is more than 70%.

For B12, the “stoichiometry N” value is approximately 4.

With B13, the “dimerization efficiency (percent dimeric of total DDR1)” value is more than 70%.

Broadly, the stoichiometry N is a count of units in the complex or per binding partner.

The values above are taken from publication PMC4036362, “Normal Activation of Discoidin Domain Receptor 1 Mutants with Disulfide Cross-links, Insertions, or Deletions in the Extracellular Juxtamembrane Region” (The Journal of Biological Chemistry, 2014).
